The values below come from US20080113421A1, “Stabilizing proteins against denaturation and inactivation by charged detergents using chemical modifications, including modifications that increase net charge” (President and Fellows of Harvard College, priority 2006, published 2008).

Series [1] is described as follows: Net charge of protein (capillary electrophoresis, charge ladder). Format: physicochemical. Here is the method:
BCA-Ac18 was synthesized by reacting the lysine residues of BCA with acetic anhydride in 100 mM HEPES buffer, pH 8.2. The N-terminus of BCA was acetylated posttranslationally. The final product contained ˜90% of BCA-Ac18 and 10% of BCA-Ac17, as determined by peak areas in an electropherogram from separation by capillary electrophoresis. The net charge of BCA in Tris-Gly buffer was about −3, and the net charge of BCA-Ac18 was about −19. It is believed that the difference in charge between BCA and BCA-Ac18 was less than 18 full units of charge due to charge regulation-adjustment of protonation states of other ionizable groups on the protein to counteract the increasing electrostatic potential on its surface.
For any charge ladder of BCA, as the number of modifications (n) increases, the total charge on the protein becomes more negative, and the surface of the protein becomes more hydrophobic due to conversion of NH3^+ groups to NHCOR groups. Native BCA has a charge of ˜−2.9 at pH 8. The charge on the early rungs of the ladder increased linearly with the number of acylations; each rung adds an additional charge of ˜−0.9. Therefore, for example, BCA-Ac8 has a charge of ˜−10. The later rungs of the ladder may differ by <0.9 units of charge. Using the Linderstrom-Lang model of cooperativity in proton binding, the charge on BCA-Ac18 was calculated to be −19. The mobility of a given rung of BCA-Acn may have nearly the same mobility as the corresponding rung of BCA-Hexn. Thus, the charges of the BCA-Hexn may be indistinguishable from those of BCA-Acn for a given rung number. (Small deviations in mobility between later rungs of the two ladders may be due either to a change in charge or a change in drag between the two ladders. It can be assumed that any differences in the mobilities are due to additional drag from the hexanoyl groups relative to the acetyl groups.

The nature of series [2]: Dynamic light scattering, hydrodynamic radius. In kind it is physicochemical. On the procedure:
Dynamic light scattering (DLS) measurements were performed on a DynaPro light scattering device (Wyatt Technology Corp.), at protein concentrations of […].
Dynamic light scattering was also used to measure the sizes of the folded and unfolded protein and of the presumably aggregated sample. The hydrodynamic radius of the native BCA (2.7±0.7 nm), and of BCA, refolded in 0.1 mM SDS (2.6±0.6 nm), were measured. BCA was denatured in 10 mM SDS, and diluted to 1.8 mM SDS, a concentration at which no refoldings were observed immediately before the measurement. […] The small increase in the hydrodynamic radius of the incubated sample is indicative of the formation of low-order aggregates (e.g., dimers or trimers), but the resolution of DLS measurements was not sufficient to observe each species individually.

For the substance bovine carbonic anhydrase II [BCA], in series [1] (Tris-Gly buffer), the net charge result is recorded as “about −3”. In series [1] (pH 8), the charge is reported as about −2.9. For the same substance, the hydrodynamic radius in series [2] (denatured in 10 mM SDS, diluted to 1.8 mM SDS immediately before measurement) is listed as 2.9±0.6 nm; in series [2] (denatured, incubated in 1.8 mM SDS for one week), 3.6±0.9 nm; in series [2] (native protein) it was 2.7±0.7 nm; in series [2] (refolded in 0.1 mM SDS), 2.6±0.6 nm.
